Paper PMC5608031

Experiments:
Format in all cases: biochemical, Homo sapiens
Conditions in all cases: PAPS
[1] = substrate: Oc1cccc2ccccc12; assay: radiolabeled sulfonation assay, Km
[2] = substrate: O=c1cc(-c2ccc(O)cc2)oc2cc(O)cc(O)c12; assay: purified protein
[3] = substrate: CC(C)(c1ccc(O)cc1)c1ccc(O)cc1; assay: purified protein
[4] = substrate: O=c1cc(-c2ccccc2)oc2cc(O)cc(O)c12; assay: purified protein
[5] = substrate: O=c1c(-c2ccc(O)cc2)coc2cc(O)cc(O)c12; assay: purified protein
[6] = substrate: O=c1c(-c2ccc(O)cc2)coc2cc(O)ccc12; assay: purified protein
[7] = substrate: O=c1cc(-c2ccc(O)cc2)oc2ccc(O)cc12; assay: purified protein

B1: human cytosolic sulfotransferase 1C4 (hSULT1C4) (Homo sapiens) (protein)
chain: MALHDMEDFTFDGTKRLSVNYVKGILQPTDTCDIWDKIWNFQAKPDDLLISTYPKAGTTWTQEIVELIQNEGDVEKSKRAPTHQRFPFLEMKIPSLGSGLEQAHAMPSPRILKTHLPFHLLPPSLLEKNCKIIYVARNPKDNMVSYYHFQRMNKALPAPGTWEEYFETFLAGKVCWGSWHEHVKGWWEAKDKHRILYLFYEDMKKNPKHEIQKLAEFIGKKLDDKVLDKIVHYTSFDVMKQNPMANYSSIPAEIMDHSISPFMRKGAVGDWKKHFTVAQNERFDEDYKKKMTDTRLTFHFQF
[1]
  Km: 1.1 ± 0.2 µM
[2]
  Km: 1.7 ± 1.0 µM
[3]
  Km: 32.8 ± 3.2 µM
[4]
  Km: 0.9 ± 0.4 µM
[5]
  Km: 3.3 ± 0.3 µM
[6]
  Km: 10.5 ± 1.1 µM
[7]
  Km: 10.1 ± 2.1 µM
